Target: the molecule itself
Assay: cryo-EM structure

B1: full length human TRPML1 with the V432A/A433G mutations (natural protein, UniProt Q9GZU1 1-580, looked up)
chain: MTAPAGPRGSETERLLTPNPGYGTQAGPSPAPPTPPEEEDLRRRLKYFFMSPCDKFRAKGRKPCKLMLQVVKILVVTVQLILFGLSNQLAVTFREENTIAFRHLFLLGYSDGADDTFAAYTREQLYQAIFHAVDQYLALPDVSLGRYAYVRGGGDPWTNGSGLALCQRYYHRGHVDPANDTFDIDPMVVTDCIQVDPPERPPPPPSDDLTLLESSSSYKNLTLKFHKLVNVTIHFRLKTINLQSLINNEIPDCYTFSVLITFDNKAHSGRIPISLETQAHIQECKHPSVFQHGDNSFRLLFDVVVILTCSLSFLLCARSLLRGFLLQNEFVGFMWRQRGRVISLWERLEFVNGWYILLVTSDVLTISGTIMKIGIEAKNLASYDVCSILLGTSTLLVWVGVIRYLTFFHNYNILIATLRVALPSVMRFCCCAGVIYLGYCFCGWIVLGPYHVKFRSLSMVSECLFSLINGDDMFVTFAAMQAQQGRSSLVWLFSQLYLYSFISLFIYMVLSLFIALITGAYDTIKHPGGAGAEESELQAYIAQCQDSPTSGKFRRGSGSACSLLCCCGRDPSEEHSLLVN
B1: binds.
